Measurements reported in the supplement of paper PMC7877785.
± gives the uncertainty stated by the source.

Test: self-splicing fitness, log relative to wild type (ln ratio); higher = more splicing; Tetrahymena group I intron in knt gene, E. coli kanamycin selection, DiMSum; sequences stand for … in CUCUCU…GGAGGGAAAAGUUAUCAGGCAUGCACCUGGUAGCUAGUCUUUAAACCAAUAGAUUGCAUCGGUUUAAAAGGCAAGACCGUCAAAUUGCGGGAAAGGGGUCAACAGCCGUUCAGUACCAAGUCUCAGGGGAAACUUUGAGAUGGCCUUGCAAAGGGUAUGGUAAUAAGCUGACGGACAUGGUCCUAACCACGCAGCCAAGUCCUAAGUCAACAGAUCUUCUGUUGAUAUGGAUGCAGUUCACAGACUAAAUGUCGGUCGGGGAAGAUGUAUUCUUCUCAUAAGAUAUAGUCGGACCUCUCCUUAAUGGGAGCUAGCGGAUGAAGUGAUGCAACACUGGAGCCGCUGGGAACUAAUUUGUAUGCGAAAGUAUAUUGAUUAGUUUUGGAGUACUCGUGGUCG
In short: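 DiMSum derived fitness as the error-weighted combination of fold changes across replicates, kanamycin versus no kanamycin, normalised to wild type. E. coli BL21(DE3) held the library, which randomised all eight P1ex-region intron nucleotides within the knt kanamycin-resistance gene on pET-22b(+). Six replicate transformations grew overnight at 37°C or 30°C on LB agar with or without 25 μg/mL kanamycin, also containing 100 μg/mL carbenicillin, 50 μM IPTG and 0.2% rhamnose, and pooled colonies were amplicon-sequenced on an Illumina HiSeq 2500.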

Sequence	self-splicing fitness (ln) (30 °C)	self-splicing fitness (ln) (37 °C)
GUAUAGCAAUAUUACGCAUG	-3.35 ± 0.24	-1.01 ± 0.17
GUAUAGCAAUAUUACGCCUA	-1.64 ± 0.27	-0.116 ± 0.22
GUAUAGCAAUAUUACGCCUG	-2.67 ± 0.11	-0.647 ± 0.1
GUAUAGCAAUAUUACGCCUU	-2.11 ± 0.29	-0.499 ± 0.24
GUAUAGCAAUAUUACGCGAG	-1.31 ± 0.11	-1.47 ± 0.12
GUAUAGCAAUAUUACGCGCA	-1.2 ± 0.17	-0.955 ± 0.14
GUAUAGCAAUAUUACGCGGA	-3.08 ± 0.33	-0.662 ± 0.2
GUAUAGCAAUAUUACGCGUC	-2.87 ± 0.27	-0.113 ± 0.24
GUAUAGCAAUAUUACGGGGG	-3.63 ± 0.37	-2.53 ± 0.48
GUAUAGCAAUAUUACGGUAG	-1.43 ± 0.095	-1.23 ± 0.15
GUAUAGCAAUAUUACGGUGC	-2.45 ± 0.23	-1.76 ± 0.36
GUAUAGCAAUAUUACGUACA	-2.07 ± 0.28	-0.449 ± 0.23
GUAUAGCAAUAUUACGUACU	-3.8 ± 0.39	-2.05 ± 0.2
GUAUAGCAAUAUUACGUAUC	-2.07 ± 0.18	-0.978 ± 0.2
GUAUAGCAAUAUUACGUCCG	-2.98 ± 0.18	-1.21 ± 0.17
GUAUAGCAAUAUUACGUGCC	-3.23 ± 0.34	-2.54 ± 0.31
GUAUAGCAAUAUUACGUGGU	-3.14 ± 0.23	-1.29 ± 0.15
GUAUAGCAAUAUUACGUGUU	-3.38 ± 0.18	-1.63 ± 0.18
GUCAAGCAAUAUUACGAAAG	-3.72 ± 0.4	-1.39 ± 0.49
GUCAAGCAAUAUUACGAAUA	-1.85 ± 0.16	-1.42 ± 0.14
GUCAAGCAAUAUUACGACGC	-1.35 ± 0.11	0.832 ± 0.18
GUCAAGCAAUAUUACGACGU	-1.26 ± 0.056	0.099 ± 0.07
GUCAAGCAAUAUUACGAGCA	-1 ± 0.35	-2.29 ± 0.28
GUCAAGCAAUAUUACGAGGC	-3.94 ± 0.24	-2.83 ± 0.18
GUCAAGCAAUAUUACGCAUC	-3.22 ± 0.13	-1.74 ± 0.18

Sequence	self-splicing fitness (ln) (30 °C)	self-splicing fitness (ln) (37 °C)
GUCAAGCAAUAUUACGCCAA		-1.52 ± 0.28
GUCAAGCAAUAUUACGCCUG	-3.6 ± 0.25	-2.6 ± 0.22
GUCAAGCAAUAUUACGCGUG	-2.92 ± 0.16	-1.78 ± 0.16
GUCAAGCAAUAUUACGCGUU	-2.07 ± 0.076	-0.761 ± 0.097
GUCAAGCAAUAUUACGCUUU	-2.41 ± 0.21	-1.73 ± 0.16
GUCAAGCAAUAUUACGGAAC	-3.13 ± 0.24	-3.19 ± 0.21
GUCAAGCAAUAUUACGGCUC	-0.927 ± 0.057	0.181 ± 0.084
GUCAAGCAAUAUUACGGGUG	-4.19 ± 0.24	-2.73 ± 0.17
GUCAAGCAAUAUUACGGUCU	-2.7 ± 0.084	-0.906 ± 0.075
GUCAAGCAAUAUUACGGUGU	-2.05 ± 0.071	-0.734 ± 0.083
GUCAAGCAAUAUUACGGUUC	-0.665 ± 0.068	-0.255 ± 0.1
GUCAAGCAAUAUUACGUACG	-2.46 ± 0.14	-1.9 ± 0.17
GUCAAGCAAUAUUACGUAUG	-4.08 ± 0.13	-2.6 ± 0.11
GUCAAGCAAUAUUACGUCAG	-3.55 ± 0.23	-3.26 ± 0.37
GUCAAGCAAUAUUACGUCCU	-2.13 ± 0.11	-1.04 ± 0.11
GUCAAGCAAUAUUACGUGCG	-2.29 ± 0.1	-0.638 ± 0.1
GUCAAGCAAUAUUACGUUAG	-4.36 ± 0.24	-3.3 ± 0.23
GUCCAGCAAUAUUACGAAUC	0.437 ± 0.16	0.114 ± 0.2
GUCCAGCAAUAUUACGACCA	-0.7 ± 0.21	-0.517 ± 0.17
GUCCAGCAAUAUUACGAGAG	-1.15 ± 0.078	0.117 ± 0.077
GUCCAGCAAUAUUACGAGGC	-2.32 ± 0.22	-2.35 ± 0.37
GUCCAGCAAUAUUACGAUAC	-0.876 ± 0.082	-0.0588 ± 0.099
GUCCAGCAAUAUUACGAUUA	-0.767 ± 0.074	-0.551 ± 0.077
GUCCAGCAAUAUUACGCAAC	-0.987 ± 0.099	-0.844 ± 0.11
GUCCAGCAAUAUUACGCCCC	-1.09 ± 0.18	-0.607 ± 0.18

Sequence	self-splicing fitness (ln) (30 °C)	self-splicing fitness (ln) (37 °C)
GUCCAGCAAUAUUACGCGAU	-3.24 ± 0.19	-2.4 ± 0.19
GUCCAGCAAUAUUACGCUCU	-0.327 ± 0.1	0.137 ± 0.12
GUCCAGCAAUAUUACGCUGG	-4.01 ± 0.12	-3.25 ± 0.11
GUCCAGCAAUAUUACGGAAA	-0.248 ± 0.095	0.62 ± 0.12
GUCCAGCAAUAUUACGGAUU	-2.84 ± 0.09	-0.789 ± 0.091
GUCCAGCAAUAUUACGGCAU	-0.147 ± 0.085	-0.171 ± 0.093
GUCCAGCAAUAUUACGGGAG	-1.15 ± 0.063	-0.322 ± 0.082
GUCCAGCAAUAUUACGGUUA	-0.0348 ± 0.05	0.165 ± 0.055
GUCCAGCAAUAUUACGGUUC	-0.386 ± 0.049	0.219 ± 0.065
GUCCAGCAAUAUUACGUCAG	-4.93 ± 0.28	-2.16 ± 0.14
GUCCAGCAAUAUUACGUGAU	-0.729 ± 0.047	-0.345 ± 0.071
GUCCAGCAAUAUUACGUUCU	-2.35 ± 0.09	-0.777 ± 0.08
GUCCAGCAAUAUUACGUUUC	-0.538 ± 0.056	-0.05 ± 0.074
GUCGAGCAAUAUUACGAAAG	-2.57 ± 0.29	-2.2 ± 0.35
GUCGAGCAAUAUUACGAGCG	-2.88 ± 0.19	-1.03 ± 0.23
GUCGAGCAAUAUUACGAGUC	-3.73 ± 0.25	-2.2 ± 0.18
GUCGAGCAAUAUUACGAGUG	-1.62 ± 0.088	-1.85 ± 0.11
GUCGAGCAAUAUUACGAGUU	-2.66 ± 0.18	-2.52 ± 0.28
GUCGAGCAAUAUUACGAUAU	-1.44 ± 0.13	-0.298 ± 0.17
GUCGAGCAAUAUUACGCCCA		-0.376 ± 0.33
GUCGAGCAAUAUUACGCGAC	-2.57 ± 0.2	-2.12 ± 0.29
GUCGAGCAAUAUUACGGAGA	-2.84 ± 0.23	-2.47 ± 0.31
GUCGAGCAAUAUUACGGAUC	-1.36 ± 0.087	-0.586 ± 0.097
GUCGAGCAAUAUUACGGCAU	-1.04 ± 0.067	0.111 ± 0.083
GUCGAGCAAUAUUACGGGAC	-3.05 ± 0.22	-2.05 ± 0.21

Sequence	self-splicing fitness (ln) (30 °C)	self-splicing fitness (ln) (37 °C)
GUCGAGCAAUAUUACGGGGG	-2.05 ± 0.29	
GUCGAGCAAUAUUACGGGUA	-2.65 ± 0.27	-2.91 ± 0.22
GUCGAGCAAUAUUACGGUGG	-3.54 ± 0.27	-2.24 ± 0.22
GUCGAGCAAUAUUACGUCGU	-0.515 ± 0.12	-0.592 ± 0.17
GUCGAGCAAUAUUACGUGAU	-2.2 ± 0.15	-2.11 ± 0.18
GUCGAGCAAUAUUACGUUAA		-2.06 ± 0.47
GUCGAGCAAUAUUACGUUCA	-0.837 ± 0.084	-0.462 ± 0.086
GUCGAGCAAUAUUACGUUUG	-2.54 ± 0.28	-2.11 ± 0.24
GUCUAGCAAUAUUACGAAAA	-2.3 ± 0.26	-1.26 ± 0.22
GUCUAGCAAUAUUACGAAAG		-2.42 ± 0.39
GUCUAGCAAUAUUACGAGAA	-1.8 ± 0.39	-0.829 ± 0.27
GUCUAGCAAUAUUACGAGAG	-2.4 ± 0.17	-1.33 ± 0.12
GUCUAGCAAUAUUACGAGCA	-1.29 ± 0.24	-0.906 ± 0.24
GUCUAGCAAUAUUACGAUAG		-2.96 ± 0.27
GUCUAGCAAUAUUACGAUAU	-0.897 ± 0.12	-0.0984 ± 0.12
GUCUAGCAAUAUUACGCCUG		-3.47 ± 0.41
GUCUAGCAAUAUUACGGAUC	-1.99 ± 0.28	-1.85 ± 0.27
GUCUAGCAAUAUUACGGCAG		-1.72 ± 0.44
GUCUAGCAAUAUUACGGCCA	-1.87 ± 0.35	-0.587 ± 0.22
GUCUAGCAAUAUUACGGCCC	-2.32 ± 0.39	0.974 ± 0.31
GUCUAGCAAUAUUACGGGAC		-1.65 ± 0.45
GUCUAGCAAUAUUACGGUAA	-1.67 ± 0.11	-0.172 ± 0.11
GUCUAGCAAUAUUACGGUGG	-2.87 ± 0.17	-3.96 ± 0.46
